Results on 32 sequences are retold here after the supplement of paper PMC9170038.

The data set has as its system MS2 coat protein. Description: apparent KD of MS2 coat protein; designed switch direction (-1 OFF switch, 1 ON switch): -1; higher = weaker reporter binding. The method in brief: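 The apparent KD reported per design is the median over clusters of curve fits to normalised cluster fluorescence. The RNA switches were transcribed on Illumina chips by stalled E. coli RNA polymerase. SNAP-549-labelled MS2 coat protein was titrated from 0.7 or 1.5 nM, doubling up to 3 µM, in Tris-HCl pH 7.5 buffer containing KCl, MgCl2, BSA, DTT, tRNA and Tween-20, with no input, 200 uM small-molecule ligand, or an oligonucleotide input.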

[1] abbreviates: Eterna round: R95, input ligand: FMN 200 uM.
Setting [2] is: Eterna round: R95, input ligand: microRNA oligo, concentration not stated.
Setting [3] is: Eterna round: R95, input ligand: none.
Where [4] appears, read: input ligand: microRNA oligo, concentration not stated.

For “CUGGUCCGAGGAUAUAUUAAGUGAAACAUGAGGAUCACCCAUGUUAUUUAAUGGAAGUAAAUAGAAGGCGGACUAG [Mat - Exclusion 5 - JL mod - D54] (puzzle: Exclusion 5)”, the “apparent KD of MS2 coat protein” value by setting is: under setting [1], 0.0387 µM; under setting [2], 0.0488 µM; under setting [3], 0.0435 µM.
Consider “CUGGUUCUAGGAUAUGCACUCACGAUCCUCCUUCAAUCGCAACAUGAGGAUCACCCAUGUAGAAGGAGAAAGUA [Eternabot (L1) Solution 91] (Eterna round: R97, puzzle: Exclusion 2)”, for which the “apparent KD of MS2 coat protein” value is, setting by setting: (input ligand: FMN 200 uM) 0.0185 µM; (input ligand: none) 0.0186 µM.
Regarding “CUGUAACAUGAGGAUCACCCAUGUCAGGAUAUCUAUCAUAGCAUCGAAAGAUGCGGGUAGAGAAGGGACUAUCC [ChP Ext 10-04-2015 #8] (puzzle: Exclusion 1)”, under setting [2], the “apparent KD of MS2 coat protein” value worked out at 0.0145 µM.
For “CUGUACUGAGGAUAUACAUGAGGAUCACCCAUGUGAUCUAGUGCACGCGUACGUGUACGUAGAAGGCAGUACAG [Mat - Exclusion 3 - Eli Mod - D38] (Eterna round: R97, puzzle: Exclusion 3)”, the “apparent KD of MS2 coat protein” value is, setting by setting: (input ligand: FMN 200 uM) 0.792 µM; (input ligand: none) 0.0565 µM.
As for “CUGUAGCUAUGAGGAUAUGCCACAAAAGUAGUUGCAGAAGGCAUCCCUACCCAGUAAGAACAUGAGGAUCACCCAUGUGAUCUG [Eternabot solution 43] (Eterna round: R96, puzzle: Exclusion NG 1)”, the “apparent KD of MS2 coat protein” value came out at 0.0716 µM (input ligand: FMN 200 uM), 0.0445 µM under setting [4] and 0.0634 µM (input ligand: none).
As for “CUGUGCACGCUGCGGUCCUACAUGAGGAUCACCCAUGUGGUCUGGUGGCGUGGGUCGCCGGACUUGGCUCGUCUUGG [salish99_S_TOV1_R5_025] (Eterna round: R97, puzzle: Sensor, turn-off variant 1)”, the “apparent KD of MS2 coat protein” value by setting is: (input ligand: FMN 200 uM) 0.0153 µM; (input ligand: none) 0.0159 µM.
As to “CUGUUCCGUGUAGGAUAUGCAUAUUCUCAUUAUGCAGAAGGACAUGAGGAUCACCCAUGUAUGUUAUUAUCAUAUGUUACAUGU [Design 5] (Eterna round: R96, puzzle: Exclusion NG 1)”, the “apparent KD of MS2 coat protein” value under setting [4] was 0.0297 µM.
In the case of “CUGUUCCGUGUAGGAUAUGCAUAUUCUCAUUAUGCAGAAGGACAUGAGGAUCACCCAUGUAUGUUAUUAUCAUGUGUUACAUGC [Design 7] (Eterna round: R96, puzzle: Exclusion NG 1)”, the “apparent KD of MS2 coat protein” value by setting is: (input ligand: FMN 200 uM) 0.22 µM; under setting [4], 0.0359 µM; (input ligand: none) 0.0388 µM.
As to “CUUAGGUGAGGAUAUUAGUAGUAAAUAAAUAAAAUUAUUACUGAGAAGGCACAUGAGGAUCACCCAUGUUCCUC [Salish 062 v3] (Eterna round: R97, puzzle: Exclusion 4)”, the “apparent KD of MS2 coat protein” value (input ligand: FMN 200 uM) is 0.548 µM and the “apparent KD of MS2 coat protein” value (input ligand: none) is 0.037 µM.
Turning to “CUUCACCCACCAGAGCUCACCCACAUACCUGCUCAGGUGACAUGAGGAUCACCCAUGUUUUUUGCCCGUCUUAUCUU [Atquertebi] (puzzle: Sensor v3, turn-off variant 2)”, the “apparent KD of MS2 coat protein” value runs as follows: under setting [1], 0.0331 µM; under setting [2], 0.181 µM; under setting [3], 0.0343 µM.
Consider “CUUCAGUCAGGAUAUCUGCACGCUGGUGAGACCGGACGGAAGGAGAAGGGACAUGAGGAUCACCCAUGUAAAGC [Xesoar] (puzzle: Exclusion 4)”, for which the “apparent KD of MS2 coat protein” value under setting [2] was 0.0157 µM.
For “CUUCGUAUAGAGGAUAUAGGUUACUACGGUAUCCUAGAAGGCUGUACAUGAGGAUCACCCAUGUACUUCAGAUC [Exclusion 6 - B - 13:d] (puzzle: Exclusion 6)”, under setting [2], the “apparent KD of MS2 coat protein” value stood at 0.0122 µM.
“CUUGUACAUGAGGAUCACCCAUGUUAGGAUAUCUCGCCGUCGGCUUGCCGACGGUAUUAGAGAAGGGACUUGGG [JL Tixe mod 6] (puzzle: Exclusion 1)”: the “apparent KD of MS2 coat protein” value under setting [2] was determined as 0.0508 µM.
Take “CUUGUGUGAGGAUAUGAAUUGCCUGGUCAUCCAGGCUCCUGUCAGAAGGCACAUGAGGAUCACCCAUGUGGGCA [Biatire] (Eterna round: R97, puzzle: Exclusion 4)”: the “apparent KD of MS2 coat protein” value amounted to 0.12 µM (input ligand: FMN 200 uM) and 0.882 µM (input ligand: none).
As for “CUUGUUUAUGUAGGAUAUGCCUGGCGUGCCUUUGCAGAAGGACAUGAGGAUCACCCAUGUAACAUGAGGCUCACCCAUGUCGCU [salish99_ExNG1_r04_106] (Eterna round: R96, puzzle: Exclusion NG 1)”, the “apparent KD of MS2 coat protein” value stood at 0.434 µM (input ligand: FMN 200 uM), 0.224 µM under setting [4] and 0.292 µM (input ligand: none).
For “CUUUAGUGAGGAUAUCAGUAGUAAUACAAUAGUAUUACUAUUGAGAAGGCACAUGAGGAUCACCCAUGUUCCUC [Mat - Exclusion 4 - Mod of Omei - D80] (puzzle: Exclusion 4)”, the “apparent KD of MS2 coat protein” value under setting [2] turned out to be 0.0272 µM.
Consider “CUUUAGUGAGGAUAUCGGUAGUAAUACAAUAGUAUUACUACUGAGAAGGCACAUGAGGAUCACCCAUGUUCCUC [Mat - Exclusion 4 - Mod of Omei - D82] (Eterna round: R96, puzzle: Exclusion 4)”, for which the “apparent KD of MS2 coat protein” value runs as follows: (input ligand: FMN 200 uM) 0.259 µM; under setting [4], 0.0253 µM; (input ligand: none) 0.0299 µM.
With “CUUUAGUGAGGAUAUCGGUAGUAAUACAAUAGUAUUACUACUGAGAAGGCACAUGAGGAUCACCCAUGUUCCUC [Mat - Exclusion 4 - Mod of Omei - D82] (puzzle: Exclusion 4)”, the “apparent KD of MS2 coat protein” value under setting [2] is 0.0302 µM.
For the sequence “CUUUCGUCUGUGGGUGGUGACAUGAGGAUCACCCAUGUUUUGCUCGUUUUGUCUUGGGCUCGGCGCCCGGGUUCGGG [-25.2, -46.4, A 8%] (Eterna round: R97, puzzle: Sensor, turn-off variant 1)”, the “apparent KD of MS2 coat protein” value by setting is: (input ligand: FMN 200 uM) 0.467 µM; (input ligand: none) 0.872 µM.
As to “CUUUUGUGAGGAUAUCAGUAGUAAAAAAAUAUAAUUACUACUGAGAAGGCACAUGAGGAUCACCCAUGUUCCUC [salish99_ex4_r3_023] (puzzle: Exclusion 4)”, the “apparent KD of MS2 coat protein” value under setting [2] is 0.0401 µM.
With “CUUUUGUGAGGAUAUCAGUAGUAAAUAAAUAAAAUUAUUACUGAGAAGGCACAUGAGGAUCACCCAUGUUCCUC [salish99_ex3_r3_086] (puzzle: Exclusion 4)”, the “apparent KD of MS2 coat protein” value under setting [2] is 0.0369 µM.
On the same count and under the same terms, for “CUUUUGUGAGGAUAUCAUUAGUAAAAAAAUAAAAUUACUACUGAGAAGGCACAUGAGGAUCACCCAUGUUCCUC [salish99_ex4_r3_034] (puzzle: Exclusion 4)” the value was 0.0376 µM.
On to “CUUUUGUGAGGAUAUUAGUAGUAAAUGAAUAAAAUUAUUACUAAGAAGGCACAUGAGGAUCACCCAUGUUCCUC [Mat - Exclusion 4 - Eli Mod - D1] (Eterna round: R97, puzzle: Exclusion 4)”, for which the “apparent KD of MS2 coat protein” value is 0.393 µM (input ligand: FMN 200 uM) and 0.0544 µM (input ligand: none).
On the same counts, the results for “CUUUUUGUUGAGGAUAUGCACCAGCUCACUGACGCAGAAGGCGACACAUGAGGAUCACCCAUGUCAGUUCGCGU [salish99_ex6_r004_431] (Eterna round: R97, puzzle: Exclusion 6)” are 0.0215 µM and 0.0168 µM.
On to “GAAAAGGUAGAGGAUAUUUCAGAUCAAAGCUGCAAAGAAGGCUGCACAUGAGGAUCACCCAUGUGGUCAACAAA [Mod of Quesina 13 - Jieux - Exclusion 6] (Eterna round: R97, puzzle: Exclusion 6)”, for which the “apparent KD of MS2 coat protein” value is, setting by setting: (input ligand: FMN 200 uM) 0.0661 µM; (input ligand: none) 0.0211 µM.
Turning to “GAAAAGGUAGGAUAUACGAAAAAAAAGGGUAGAAAAAAAACACAUGAGGAUCACCCAUGUAGAAGGACCAAAAG [Mat - Exclusion 2 - Tesla mod - D30] (Eterna round: R96, puzzle: Exclusion 2)”, under setting [4], the “apparent KD of MS2 coat protein” value came to 0.0253 µM.
In the case of “GAAAAGGUAGGAUAUACGAAAAAAAAGGGUAGAAAAAAAACACAUGAGGAUCACCCAUGUAGAAGGACCAAAAG [salish99_ex2_r3_015] (puzzle: Exclusion 2)”, the “apparent KD of MS2 coat protein” value under setting [1] turned out to be 0.0578 µM, the “apparent KD of MS2 coat protein” value under setting [2] was determined as 0.0287 µM and the “apparent KD of MS2 coat protein” value under setting [3] was found to be 0.0272 µM.
For the sequence “GAAAAGGUAGGAUAUACGAAAAAAAAGGGUAGAAAAAAAACACAUGAGGAUCACCCAUGUAGAAGGACCGAAAG [salish99_ex2_r3_037] (puzzle: Exclusion 2)”, the “apparent KD of MS2 coat protein” value by setting is: under setting [1], 0.0585 µM; under setting [2], 0.0368 µM; under setting [3], 0.0327 µM.
For the sequence “GAAAAGGUAGGAUAUACGAAAAAAUAGGGUAGAAAAAAAACACAUGAGGAUCACCCAUGUAGAAGGACCAAAAG [salish99_ex2_r3_081] (puzzle: Exclusion 2)”, the “apparent KD of MS2 coat protein” value runs as follows: under setting [1], 0.0476 µM; under setting [2], 0.0337 µM; under setting [3], 0.0275 µM.
“GAAAAGGUAGGAUAUACGAAAAAUAAGGGUAGAAAAAAAACACAUGAGGAUCACCCAUGUAGAAGGACCAAAAG [salish99_ex2_r3_082] (puzzle: Exclusion 2)”: the “apparent KD of MS2 coat protein” value under setting [1] is 0.0657 µM, the “apparent KD of MS2 coat protein” value under setting [2] turned out to be 0.0278 µM and the “apparent KD of MS2 coat protein” value under setting [3] came to 0.033 µM.
Turning to “GAAAAGGUAGGAUAUACGAAAAUAAAGGGUAGAAAAAAAACACAUGAGGAUCACCCAUGUAGAAGGACCAAAAG [salish99_ex2_r3_083] (puzzle: Exclusion 2)”, the “apparent KD of MS2 coat protein” value turned out to be 0.0683 µM under setting [1], 0.0334 µM under setting [2] and 0.0364 µM under setting [3].
With “GAAAAGGUAGGAUAUACGAAUAAAAAGGGUAGAAAAAAAACACAUGAGGAUCACCCAUGUAGAAGGACCAAAAG [salish99_ex2_r3_085] (puzzle: Exclusion 2)”, the “apparent KD of MS2 coat protein” value under setting [1] worked out at 0.0677 µM, the “apparent KD of MS2 coat protein” value under setting [2] stood at 0.025 µM and the “apparent KD of MS2 coat protein” value under setting [3] was determined as 0.0244 µM.
